This is an account of results in paper PMC3812226, “A New Short Oligonucleotide-Based Strategy for the Precursor-Specific Regulation of microRNA Processing by Dicer”.

Data set [1] concerns the target T1, hDicer (human recombinant Dicer) (human, UniProt Q9UPY3 1-1922). Description: competition; displaces labeled ATD_13.6; Filter binding: 20 mM Tris-HCl pH 7.5, 250 mM NaCl (membrane pre-soak/reaction buffer), 37 C 30 min; hDicer EMSA: 20 min at 4 C, Dicer preincubated without divalent cations (Fig S1), native PAGE. To be noted: protein: commercial; hairpin. In general terms: Mobility shift assays separate free from complexed probe on a gel.

The target in data set [2] is T1, hDicer (human recombinant Dicer). Description: EMSA; 4 C; Filter binding: 20 mM Tris-HCl pH 7.5, 250 mM NaCl (membrane pre-soak/reaction buffer), 37 C 30 min; hDicer EMSA: 20 min at 4 C, Dicer preincubated without divalent cations (Fig S1), native PAGE. As to conditions: protein: commercial; label: 5'-32P; single strand.
Data set [3] has the same target. Description: competition; displaces labeled ATD_13.6 (most profound effect); Filter binding: 20 mM Tris-HCl pH 7.5, 250 mM NaCl (membrane pre-soak/reaction buffer), 37 C 30 min; hDicer EMSA: 20 min at 4 C, Dicer preincubated without divalent cations (Fig S1), native PAGE. To be noted: protein: commercial; hairpin.
Data set [4] shares this target. Description: EMSA; no divalent metal, 4 C; Filter binding: 20 mM Tris-HCl pH 7.5, 250 mM NaCl (membrane pre-soak/reaction buffer), 37 C 30 min; hDicer EMSA: 20 min at 4 C, Dicer preincubated without divalent cations (Fig S1), native PAGE. As to conditions: protein: commercial; label: 5'-32P.

B1: pre-miR-33a (structured_RNA)
RNA: GUGCAUUGUAGUUGCAUUGCAUGUUCUGGUGGUACCCAUGCAAUGUUUCCACAGUGCAUC
On to B1, for which the binding result in data set [1] was “binds”.

For GGGGCAGCGCAG (XNA, 2'-O-methyl at every ribose) [2OMe-AL-210], the binding result in data set [2] was “binds”.

B2: pre-miR-16-1 (structured_RNA)
RNA: UAGCAGCACGUAAAUAUUGGCGUUAAGAUUCUAAAAUUAUCUCCAGUAUUAACUGUGCUGCUGAA
As to B2, the binding result in data set [3] is reported as “binds”.

B3: pre-miR-21 (structured_RNA)
RNA: AGCUUAUCAGACUGAUGUUGACUGUUGAAUCUCAUGGCAACACCAGUCGAUGGGCUGU
In the case of B3, in data set [1], the binding result was “binds”.

B4: ATD_15.52 (structured_RNA)
RNA: GGGAGAAUCAUAAGUAGCGCAGUGAGUCGUUGUGCUGCCCAUGUUAACAGUUAGCC
In the case of B4, in data set [4], the binding result is on record as “binds”.
